Assay results taken from the supplement of paper PMC10567573.

B1: C2CD2L (parent)
chain: LTLKVLRSSSCGDTELLGQATLPV
B2: DFFB (parent)
chain: TLVEAIKEQDGREVDWEYFYGLLF

Variants of: B1
Test: protein stability index of a GFP-peptide fusion (GPS, HEK-293T) (PSI 1-6); higher = more stable
Details: c terminus: a fixed tail appended
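Also: lentivirally expressed fusions sorted by FACS into six bins by GFP to DsRed ratio, PSI derived from sequencing read proportions per bin multiplied by bin number.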

Protein stability index of substitutions, site by site:
L1: M 2.63; Q 2.96; I 2.76; G 2.56; R 2.29; W 2.67; A 4.09; F 1; P 2.9; C 2.58; N 2.97; E 2.76; S 2.74; Y 1.77; H 2.24; D 3.35; K 1.99; T 2.04
T2: C 2.32; Q 2.93; K 2.17; E 1.92; W 2.99; G 1.93; A 1.66; P 2.8; R 1.64; I 2.9; D 1.95; Y 2.94; H 1.3
L3: F 2.31; E 3.55; K 3.07; A 2.59; C 1.68; G 2.16; D 3.35; H 2.51; I 4.28; P 3.51; M 1.46; Q 2.87; S 2.74; R 2.63; N 3.56

Variants of: B2
Test: as above
Details: c terminus: a fixed tail appended

Protein stability index of substitutions, site by site:
G21: M 2.26; H 2.37; L 1.35; N 1.87; I 1.34; T 1.88; C 1.72; R 1.84; Q 2.25; Y 1.53; K 2.31; E 1.93; P 1.46; W 1.83; V 1.08; S 2
Y20: A 2.03; P 2.67; C 1.92; E 1.67; H 2.03; M 2.64; F 1.93; K 1.6; N 2.25; R 2.67; V 2.42; L 1.53; G 1.79; T 1.54; S 1.33; I 1.78; D 2.36; Q 2.07; W 1.72
G11: C 2.72; H 2.04; Q 2.04; P 2.44; A 1.84; V 2.92; M 2.13; E 2.13; K 1.61; S 1.7; Y 1.88; T 2.28; F 1.02; N 2.13
D10: S 2.37; T 1.59; P 2.32; L 1.91; A 2.01; K 2.12; N 1.86; G 2.66; Y 1.92; C 1.99; H 1.99; F 1.91; V 1.73; M 1.35; R 1.41; Q 1.71
E17: N 1.4; T 2.42; F 1.6; Q 2.21; A 2.06; P 1.33; V 2.24; L 2.18; H 2.08; I 1.48; Y 1.67; G 2.38; K 3.25; M 1.78; R 2.46; D 2.52
F24: W 1.07; C 2.23; N 1.95; H 2.2; T 2.42; S 2.52; Q 2.27; Y 2.31; K 1.79; D 2.21; L 1.7; E 2.22; I 1.93; A 1.69; P 2.53; R 1.63
D15: E 3.52; Y 1.19; P 2.2; W 1.88; N 1.9; Q 1.78; A 1.44; C 1.9; G 1.9; H 1.51; M 1.69; R 1.75; S 2.12; L 1.59; F 1.93; T 2.08; I 2.15
E8: R 2.67; V 1.66; D 2.08; N 2.53; H 2.47; G 2.37; P 2.38; S 1.72; A 1.88; L 2.82; M 1.62; K 1.83; Y 2.48; Q 1.43; I 1.3; F 1.1
R12: S 1.84; Q 2.41; K 2.41; M 2.18; V 2.07; W 1.72; A 1.32; N 2.42; T 1.92; C 1.91; Y 2.59; F 1.48; I 1.56; E 2.44; H 2.2; P 2.16; G 1.74
W16: S 2.84; M 2.05; V 2.61; D 2.53; R 2.3; N 2.63; G 2.44; E 2.19; T 3.12; F 1.93; H 1.58; A 2.06; Q 2.17; Y 1.72; L 1.66; C 2.46; I 1.93; K 1.87; P 2.44
L22: T 2.58; H 2.43; W 1.1; M 1.85; V 1.96; R 1.8; D 2.62; F 1.52; A 2; Y 1.86; C 2.04; S 2.49; I 1.97; Q 2.94; P 3.28; E 2.51
Y18: V 2.34; F 1.76; G 1.71; T 1.9; S 2.24; N 2.44; M 1.94; R 2.2; Q 2.18; I 2.06; A 1.92; D 2.16; H 3.81; L 1.25; W 1.76
V14: M 1.98; D 1.28; E 2.37; F 1.51; Y 2.18; L 2.28; H 1.91; N 2.36; R 1.65; Q 1.7; T 2.36; W 2.12; I 2.05; S 2.24; C 1.5; P 1.76; A 2.25; G 2.12; K 1.23
E13: K 3.03; T 1.98; D 2.1; G 3.05; S 1.76; W 2.27; C 1.22; P 1.67; N 1.79; V 2.07; A 1.74; F 1.85; L 1.57; R 1.81; I 2.36; M 2.02; H 1.84; Y 3.29
Q9: I 1.87; D 1.97; L 3.05; E 2.26; V 1.24; R 2.27; H 2.33; W 2.59; G 1.26; K 1.55; S 1.66; A 1.37; F 2.73; M 1.74; P 3; Y 1.08; T 2; N 1.57
K7: W 2.15; V 1.64; Y 3.52
F19: Q 3.44; M 2.17; V 1.42; I 1.55; S 2.68; C 2.04; T 2.69; Y 2.19; W 2.39; H 2.5; K 3.22; L 2.1; N 2.24; D 2.76; A 1.9; P 3.01; R 2.31
L23: S 2.1; R 2.5; F 2.26; A 1.86; V 1.92; M 2.12; Y 2.86; W 2.21; H 2.07; D 2; C 1.6; E 2.19; P 2.18; Q 2.37; K 2.03; I 2.24
